Test [1] addresses LHCGR I83S mutant (human) (UniProt P22888).
Test [2] addresses human luteinizing hormone (LH)/chorionic gonadotropin (hCG) receptor (LHCGR), wild type (human) (UniProt P22888).
Test [3] addresses LHCGR S149F mutant (human) (UniProt P22888).
Test [4] addresses LHCGR A57T mutant (human) (UniProt P22888).
Test [5] has as its target LHCGR K225S + T226I mutant (human) (UniProt P22888).
Test [6] has as its target LHCGR R247T mutant (human) (UniProt P22888).
In test [7] the target is LHCGR N35D + V37A mutant (human) (UniProt P22888).
In test [8] the target is LHCGR E270V mutant (human) (UniProt P22888).
Test [9] concerns the target LHCGR T48R mutant (human) (UniProt P22888).
The target in test [10] is LHCGR I83S mutant (human) (UniProt P22888). This is another data set of the same source.
In test [11] the target is human luteinizing hormone (LH)/chorionic gonadotropin (hCG) receptor (LHCGR), wild type (human) (UniProt P22888). The source holds these as a separate data set.
The target in test [12] is LHCGR S149F mutant (human) (UniProt P22888). The source holds these as a separate data set.
For test [13], the target named is LHCGR A57T mutant (human) (UniProt P22888). The source holds these as a separate data set.
Test [14] concerns the target LHCGR K225S + T226I mutant (human) (UniProt P22888). This is another data set of the same source.
Test [15] deals with LHCGR R247T mutant (human) (UniProt P22888). This is another data set of the same source.
Test [16] deals with LHCGR N35D + V37A mutant (human) (UniProt P22888). The source holds these as a separate data set.
In test [17] the target is LHCGR E270V mutant (human) (UniProt P22888). The source holds these as a separate data set.
For test [18], the target named is LHCGR T48R mutant (human) (UniProt P22888). The source holds these as a separate data set.

In the case of “recombinant human luteinizing hormone (LH) (from UniProt P01215 25-116; P01229 21-141) (ligand)”, the LH AUC of the pERK1/2 activation kinetics, BRET (REV biosensor) in transfected HEK293 cells, 100 pM LH (relative units) in [1] came out at 8.03; in [2] it was 13.9; in test [3] it was 10.4; in test [4] it was 10.9; in test [5], 11.4; in [6], 10.5. Besides, the LH AUC of the pERK1/2 activation kinetics, BRET (REV biosensor) in transfected HEK293 cells, 100 pM LH (relative units) amounted to 5.48 in test [7], 10.9 in [8] and 12.3 in test [9]. The LH EC50 (pM) of cAMP increase, BRET (CAMYEL biosensor) in transfected HEK293 cells, 1 pM–100 nM LH, 30 min in [10] was determined as 712 pM; in test [11] it was 1110 pM; in test [12] it was 756 pM; in [13] it was 703 pM; in [14], 698 pM; in test [15], 556 pM. For the same substance, the figures for the LH EC50 (pM) of cAMP increase, BRET (CAMYEL biosensor) in transfected HEK293 cells, 1 pM–100 nM LH, 30 min in [16], in [17] and in [18] were 595 pM, 2810 pM and 1210 pM, respectively.
As for “recombinant human chorionic gonadotropin (hCG) (from UniProt P01215 25-116; P0DN86 21-165) (ligand)”, the hCG AUC of the pERK1/2 activation kinetics, BRET (REV biosensor) in transfected HEK293 cells, 100 pM hCG (relative units) in test [1] worked out at 6.65; in test [2], 7.98; in [3], 13.9; in test [4], 20.5; in test [5] it was 9.47; in test [6], 15.4. The hCG AUC of the pERK1/2 activation kinetics, BRET (REV biosensor) in transfected HEK293 cells, 100 pM hCG (relative units) in test [7] stood at 8.19; in test [8] it was 7.18; in test [9], 13.4. For the same substance, the hCG EC50 (pM) of cAMP increase, BRET (CAMYEL biosensor) in transfected HEK293 cells, 1 pM–100 nM hCG, 30 min in [10] was 127 pM; in test [11] it was 143 pM; in test [12], 111 pM; in test [13] it was 153 pM; in test [14] it was 194 pM; in test [15], 386 pM. For the same substance, the results for the hCG EC50 (pM) of cAMP increase, BRET (CAMYEL biosensor) in transfected HEK293 cells, 1 pM–100 nM hCG, 30 min in [16], in [17] and in [18] were 94.5 pM, 248 pM and 130 pM, respectively.

The values are drawn from paper PMC7794846.
